Results: patent US20260234290, “Antibodies to Stat3 Decoy Oligonucleotide” (The Regents of the University of California, published 2026)

Tests used:
[1] = molecular target: 4E4 Fab (UniProt P01764;A0A075B6I4 SEQ:1-116,SEQ:1-110); experiment: BLI; 2 uM Fab; RT; described as weak binding; conditions: myc tag; Ni-NTA purified from E. coli BL21(DE3) periplasm; label: biotin; cyclic 15-mer double-stranded decoy
Experimental: (§1) All buffers were filter sterilized with […] filters prior to preparing samples. Black 384 well microplates were used to set up BLI plates and streptavidin tips were purchased by Sartorius. Kinetic constants of Fabs were determined by Octet RED384 system with continuous shaking at 1000 rpm in RT. Prior to the experiment, biological tips (model name) were presoaked in buffer to allow for equilibration for 1 hour. Data were analyzed using 1:1 interaction model on the ForteBio data analysis software 12.0.

[2] = molecular target: SP1-B3 Fab (UniProt A0A0B4J1U7;A0A087WSX0 SEQ:1-120,SEQ:1-115); experiment: BLI; 2 uM Fab; CS3D on streptavidin tips; RT; RAPID-sorted clone; conditions: myc tag; Ni-NTA purified from E. coli BL21(DE3) periplasm; label: biotin; cyclic 15-mer double-stranded decoy
Experimental: as §1

Sequence of 4E4 Fab (P01764 other isoform, or with tags, fused parts or gaps, chain 1 of 2): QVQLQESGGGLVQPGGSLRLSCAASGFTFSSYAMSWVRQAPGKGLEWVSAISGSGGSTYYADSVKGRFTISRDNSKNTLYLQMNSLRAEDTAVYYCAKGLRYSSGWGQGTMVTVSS
Sequence of 4E4 Fab (A0A075B6I4 other isoform, or with tags, fused parts or gaps, chain 2 of 2): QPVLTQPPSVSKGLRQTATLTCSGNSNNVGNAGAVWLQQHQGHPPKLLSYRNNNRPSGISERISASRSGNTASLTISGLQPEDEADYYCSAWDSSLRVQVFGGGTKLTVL
Sequence of SP1-B3 Fab (A0A0B4J1U7 other isoform, or with tags, fused parts or gaps, chain 1 of 2): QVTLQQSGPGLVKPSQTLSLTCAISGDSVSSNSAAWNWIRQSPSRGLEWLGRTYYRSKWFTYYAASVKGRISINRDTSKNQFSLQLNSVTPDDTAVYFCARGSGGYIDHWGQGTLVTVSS
Sequence of SP1-B3 Fab (A0A087WSX0 other isoform, or with tags, fused parts or gaps, chain 2 of 2): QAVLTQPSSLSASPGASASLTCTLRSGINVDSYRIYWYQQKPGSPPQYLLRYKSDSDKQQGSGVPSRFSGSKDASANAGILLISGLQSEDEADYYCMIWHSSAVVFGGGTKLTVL

B1: CS3D (cyclic STAT3 decoy) (dsDNA)
DNA 1: CATTTCCCGTAAATC
DNA 2: GATTTACGGGAAATG
B1 was tested, and the koff [1] was 0.111 s⁻¹ and the koff [2] was 0.0211 s⁻¹.
